Earlier results in patent publication US7550436B2, “Compositions containing peptide and electrolyte excretion promoter and foods containing the same” (Kracie Pharma, Ltd., priority 2000, dated 2009).
No end group written: not given here.

Biological target: angiotensin converting enzyme (Homo sapiens, UniProt P12821)
Conditions: reported in JP-B-60-23085, JP-B-61-51562, JP-B-61-51564, JP-B-5-21092

angiotensin converting enzyme, sequence (P12821 30-1306, species assumed): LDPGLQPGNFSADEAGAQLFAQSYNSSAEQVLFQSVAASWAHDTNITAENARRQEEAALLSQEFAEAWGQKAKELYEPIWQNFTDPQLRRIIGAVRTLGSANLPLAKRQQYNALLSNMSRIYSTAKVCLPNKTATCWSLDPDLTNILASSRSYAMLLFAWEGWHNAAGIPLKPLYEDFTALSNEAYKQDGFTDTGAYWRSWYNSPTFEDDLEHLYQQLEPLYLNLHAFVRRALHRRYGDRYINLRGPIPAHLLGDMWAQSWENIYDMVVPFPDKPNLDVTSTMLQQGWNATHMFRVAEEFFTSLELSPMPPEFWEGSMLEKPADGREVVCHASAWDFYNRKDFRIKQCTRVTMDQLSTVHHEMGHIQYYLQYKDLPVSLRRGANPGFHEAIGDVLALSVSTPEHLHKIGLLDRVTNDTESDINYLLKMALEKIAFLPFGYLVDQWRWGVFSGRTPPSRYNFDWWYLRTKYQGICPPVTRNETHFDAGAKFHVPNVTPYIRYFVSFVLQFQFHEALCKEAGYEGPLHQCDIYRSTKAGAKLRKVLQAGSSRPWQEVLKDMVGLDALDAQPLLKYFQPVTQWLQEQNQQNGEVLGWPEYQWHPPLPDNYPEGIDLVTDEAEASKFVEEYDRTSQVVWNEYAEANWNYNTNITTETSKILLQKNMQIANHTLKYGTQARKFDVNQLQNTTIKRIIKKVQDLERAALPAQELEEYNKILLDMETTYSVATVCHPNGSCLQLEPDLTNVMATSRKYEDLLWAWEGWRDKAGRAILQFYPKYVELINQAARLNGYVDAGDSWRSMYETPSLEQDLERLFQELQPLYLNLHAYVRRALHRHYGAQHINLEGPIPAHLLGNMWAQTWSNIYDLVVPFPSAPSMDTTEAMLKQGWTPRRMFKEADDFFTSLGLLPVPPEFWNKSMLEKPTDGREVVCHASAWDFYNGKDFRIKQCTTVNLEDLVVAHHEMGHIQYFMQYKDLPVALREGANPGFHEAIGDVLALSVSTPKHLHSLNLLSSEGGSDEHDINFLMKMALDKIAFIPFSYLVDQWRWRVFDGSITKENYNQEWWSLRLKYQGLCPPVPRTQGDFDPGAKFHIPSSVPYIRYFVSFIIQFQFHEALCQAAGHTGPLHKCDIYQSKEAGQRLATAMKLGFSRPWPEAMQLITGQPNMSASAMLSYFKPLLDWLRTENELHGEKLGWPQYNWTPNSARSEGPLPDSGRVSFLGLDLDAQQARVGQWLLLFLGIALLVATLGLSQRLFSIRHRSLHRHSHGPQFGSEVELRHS

Row | inhibitory activity to angiotensin converting enzyme (ACE) | Substance
1 | inhibitory activity | AVPYPQR [Cβ7, ID No. 2, casein-origin peptide]
2 | inhibitory activity | FFVAPFPEVFGK [Example C12, ID No. 1, casein-origin peptide]
3 | inhibitory activity | TTMPLW [Example C6, ID No. 3, casein-origin peptide]
